# Measured values as given in US20070224189A1.
# Target: extracellular region of human V158 FcγRIIIa fused with glutathione S-Transferase (GST) (human) (UniProt P08637)
# Assay: AlphaScreen competition
# Chain of extracellular region of human V158 FcγRIIIa fused with glutathione S-Transferase (GST) (human) (P08637 17-208 F176V): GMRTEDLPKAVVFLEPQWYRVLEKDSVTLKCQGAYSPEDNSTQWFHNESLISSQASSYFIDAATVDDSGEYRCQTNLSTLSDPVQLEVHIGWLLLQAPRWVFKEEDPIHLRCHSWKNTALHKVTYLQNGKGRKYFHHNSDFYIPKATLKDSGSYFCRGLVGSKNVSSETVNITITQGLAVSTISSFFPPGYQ
row,Substance,FcγRIIIa Fold [fold vs WT]
1,A327L alemtuzumab (antibody),0.05
2,F241E/F243Q/V262T/V264E alemtuzumab (antibody),0.07
3,F241E/F243R/V262E/V264R alemtuzumab (antibody),0.05
4,F241E/F243Y/V262T/V264R alemtuzumab (antibody),0.05
5,F241L/V262I alemtuzumab (antibody),0.06
6,F241R/F243Q/V262T/V264R alemtuzumab (antibody),0.02
7,F241W/F243W alemtuzumab (antibody),0.07
8,L234I/L235D trastuzumab (antibody),0.07
9,S239D/D265H/N297D/I332E alemtuzumab (antibody),0.04
10,S239D/D265V/N297D/I332E alemtuzumab (antibody),0.03
11,S239E/D265Q alemtuzumab (antibody),0.05
12,S239E/N297D/I332E alemtuzumab (antibody),0.06
13,S267Q/A327S alemtuzumab (antibody),0.03
14,T299A alemtuzumab (antibody),0.03
15,V264E/N297D/I332E alemtuzumab (antibody),0.05
16,Y296N/N297D/I332E alemtuzumab (antibody),0.04
